Measurements published in patent publication US20180148477A1 (published 2018).
Bridge positions count the residues as written; N and C are the ends. Square brackets hold non-standard residues; d marks the D form. Bip = N[C@@H](Cc1ccc(-c2ccccc2)cc1)C(=O)O; 1Nal = N[C@@H](Cc1cccc2ccccc12)C(=O)O; 2Nal = N[C@@H](Cc1ccc2ccccc2c1)C(=O)O; d1Nal = N[C@H](Cc1cccc2ccccc12)C(=O)O; NMeR = CN[C@@H](CCCNC(=N)N)C(=O)O; Tic = O=C(O)[C@@H]1Cc2ccccc2CN1; β3hE = N[C@@H](CCC(=O)O)CC(=O)O; Cha = N[C@@H](CC1CCCCC1)C(=O)O; Cit = NC(=O)NCCC[C@H](N)C(=O)O; NMeK = CN[C@@H](CCCCN)C(=O)O; Pen = CC(C)(S)[C@H](N)C(=O)O; hLeu = CC(C)CC[C@H](N)C(=O)O; Dab = NCC[C@H](N)C(=O)O

B1: SEQ ID NO: 162 (peptide)
peptide: Ac-[Pen][NMeR]SDTF[Pen][2Nal][dE]-NH2
modifications: disulfide 1-7
SMILES: CC(=O)N[C@@H]1C(=O)N(C)[C@@H](CCCNC(=N)N)C(=O)N[C@@H](CO)C(=O)N[C@@H](CC(=O)O)C(=O)N[C@@H]([C@@H](C)O)C(=O)N[C@@H](Cc2ccccc2)C(=O)N[C@H](C(=O)N[C@@H](Cc2ccc3ccccc3c2)C(=O)N[C@H](CCC(=O)O)C(N)=O)C(C)(C)SSC1(C)C
B2: SEQ ID NO: 157 (peptide)
peptide: Ac-[Pen][NMeR]SDFL[Pen][2Nal][dE]-NH2
modifications: disulfide 1-7
SMILES: CC(=O)N[C@@H]1C(=O)N(C)[C@@H](CCCNC(=N)N)C(=O)N[C@@H](CO)C(=O)N[C@@H](CC(=O)O)C(=O)N[C@@H](Cc2ccccc2)C(=O)N[C@@H](CC(C)C)C(=O)N[C@H](C(=O)N[C@@H](Cc2ccc3ccccc3c2)C(=O)N[C@H](CCC(=O)O)C(N)=O)C(C)(C)SSC1(C)C
B3: SEQ ID NO: 159 (peptide)
peptide: Ac-[Pen][NMeR]SDLL[Pen][2Nal][dE]-NH2
modifications: disulfide 1-7
SMILES: CC(=O)N[C@@H]1C(=O)N(C)[C@@H](CCCNC(=N)N)C(=O)N[C@@H](CO)C(=O)N[C@@H](CC(=O)O)C(=O)N[C@@H](CC(C)C)C(=O)N[C@@H](CC(C)C)C(=O)N[C@H](C(=O)N[C@@H](Cc2ccc3ccccc3c2)C(=O)N[C@H](CCC(=O)O)C(N)=O)C(C)(C)SSC1(C)C
B4: SEQ ID NO: 163 (peptide)
peptide: Ac-[Pen][NMeR]SDTQ[Pen][2Nal][dE]-NH2
modifications: disulfide 1-7
SMILES: CC(=O)N[C@@H]1C(=O)N(C)[C@@H](CCCNC(=N)N)C(=O)N[C@@H](CO)C(=O)N[C@@H](CC(=O)O)C(=O)N[C@@H]([C@@H](C)O)C(=O)N[C@@H](CCC(N)=O)C(=O)N[C@H](C(=O)N[C@@H](Cc2ccc3ccccc3c2)C(=O)N[C@H](CCC(=O)O)C(N)=O)C(C)(C)SSC1(C)C
B5: SEQ ID NO: 160 (peptide)
peptide: Ac-[Pen][NMeR]SDIL[Pen][2Nal][dE]-NH2
modifications: disulfide 1-7
SMILES: CC[C@H](C)[C@@H]1NC(=O)[C@H](CC(=O)O)NC(=O)[C@H](CO)NC(=O)[C@H](CCCNC(=N)N)N(C)C(=O)[C@@H](NC(C)=O)C(C)(C)SSC(C)(C)[C@@H](C(=O)N[C@@H](Cc2ccc3ccccc3c2)C(=O)N[C@H](CCC(=O)O)C(N)=O)NC(=O)[C@H](CC(C)C)NC1=O
B6: SEQ ID NO: 164 (peptide)
peptide: Ac-[Pen][NMeR]SDTY[Pen][2Nal][dE]-NH2
modifications: disulfide 1-7
SMILES: CC(=O)N[C@@H]1C(=O)N(C)[C@@H](CCCNC(=N)N)C(=O)N[C@@H](CO)C(=O)N[C@@H](CC(=O)O)C(=O)N[C@@H]([C@@H](C)O)C(=O)N[C@@H](Cc2ccc(O)cc2)C(=O)N[C@H](C(=O)N[C@@H](Cc2ccc3ccccc3c2)C(=O)N[C@H](CCC(=O)O)C(N)=O)C(C)(C)SSC1(C)C
B7: SEQ ID NO: 158 (peptide)
peptide: Ac-[Pen][NMeR]SD[Cha]L[Pen][2Nal][dE]-NH2
modifications: disulfide 1-7
SMILES: CC(=O)N[C@@H]1C(=O)N(C)[C@@H](CCCNC(=N)N)C(=O)N[C@@H](CO)C(=O)N[C@@H](CC(=O)O)C(=O)N[C@@H](CC2CCCCC2)C(=O)N[C@@H](CC(C)C)C(=O)N[C@H](C(=O)N[C@@H](Cc2ccc3ccccc3c2)C(=O)N[C@H](CCC(=O)O)C(N)=O)C(C)(C)SSC1(C)C
B8: SEQ ID NO: 75 (peptide)
peptide: Ac-[Pen][NMeR]SDTL[Pen][2Nal]E-NH2
modifications: disulfide 1-7
SMILES: CC(=O)N[C@@H]1C(=O)N(C)[C@@H](CCCNC(=N)N)C(=O)N[C@@H](CO)C(=O)N[C@@H](CC(=O)O)C(=O)N[C@@H]([C@@H](C)O)C(=O)N[C@@H](CC(C)C)C(=O)N[C@H](C(=O)N[C@@H](Cc2ccc3ccccc3c2)C(=O)N[C@@H](CCC(=O)O)C(N)=O)C(C)(C)SSC1(C)C
B9: SEQ ID NO: 161 (peptide)
peptide: Ac-[Pen][NMeR]SD[hLeu]L[Pen][2Nal][dE]-NH2
modifications: disulfide 1-7
SMILES: CC(=O)N[C@@H]1C(=O)N(C)[C@@H](CCCNC(=N)N)C(=O)N[C@@H](CO)C(=O)N[C@@H](CC(=O)O)C(=O)N[C@@H](CCC(C)C)C(=O)N[C@@H](CC(C)C)C(=O)N[C@H](C(=O)N[C@@H](Cc2ccc3ccccc3c2)C(=O)N[C@H](CCC(=O)O)C(N)=O)C(C)(C)SSC1(C)C

The binders below were run against human α4β7 integrin on cells (human) (UniProt P13612) (assay: RPMI8866 adhesion to MAdCAM-1).
For Ac-[Pen][NMeR]SDTL[Pen]WE[Dab]-NH2 (disulfide 1-7; also: dimer (monomer)2-DIG, DIG attachment place not given here) [SEQ ID NO: 97], the IC50 was < 10 nM.
For Ac-[Pen][NMeR]SDTL[Pen][2Nal][dT][dK]-NH2 (disulfide 1-7 (inferred); also: dimer via DIG linker) [SEQ ID NO: 140], the IC50 was > 10 nM.
With Ac-[Pen][NMeR]SDTL[Pen][1Nal][dF][dK]-NH2 (disulfide 1-7; also: dimer via DIG, attachment site not given here) [SEQ ID NO: 111] the IC50 was > 100 nM.
In the case of B1, the IC50 is reported as > 1000 nM.
Ac-[Pen][NMeR]SDVL[Pen][2Nal][dE]-NH2 (disulfide 1-7 (inferred)) [SEQ ID NO: 156] was tested, and the IC50 was > 100 nM.
In the case of Ac-[Pen][NMeR]SDTL[Pen][2Nal][dR][dK]-NH2 (disulfide 1-7 (inferred); also: homodimer via DIG) [SEQ ID NO: 120], the IC50 is reported as > 1000 nM.
With Ac-[Pen][NMeR]SDTL[Pen][Bip][β3hE][dK]-NH2 (disulfide 1-7 (inferred); also: homodimer via DIG) [SEQ ID NO: 135] the IC50 was < 10 nM.
Ac-[Pen][NMeR]SDTL[Pen][2Nal][dL][dK]-NH2 (disulfide 1-7 (inferred); also: homodimer via DIG) [SEQ ID NO: 119] was tested, and the IC50 was > 500 nM.
With Ac-[Pen][NMeR]SDTL[Pen][1Nal][dL][dK]-NH2 (disulfide 1-7 (inferred); also: homodimer via DIG) [SEQ ID NO: 113] the IC50 was > 500 nM.
Ac-[Pen][NMeR]SDTL[Pen][2Nal][Tic][dK]-NH2 (disulfide 1-7 (inferred); also: homodimer via DIG) [SEQ ID NO: 121] was tested, and the IC50 was > 100 nM.
Ac-[Pen][NMeR]SDTL[Pen][1Nal][dR][dK]-NH2 (disulfide 1-7 (inferred); also: homodimer via DIG) [SEQ ID NO: 114] was tested, and the IC50 was > 100 nM.
In the case of Ac-[Pen][NMeR]SDTL[Pen]W[Cit][dK]-NH2 (disulfide 1-7; also: dimer (monomer)2-DIG, DIG attachment place not given here) [SEQ ID NO: 84], the IC50 is reported as > 10 nM.
Ac-[Pen][NMeR]SDTL[Pen][2Nal][dY][dK]-NH2 (disulfide 1-7; also: dimer via DIG) [SEQ ID NO: 27] was tested, and the IC50 was > 25 nM.
In the case of Ac-[Pen][NMeR]SDTL[Pen][2Nal][dF][dK]-NH2 (disulfide 1-7 (inferred); also: homodimer via DIG) [SEQ ID NO: 117], the IC50 is reported as > 100 nM.
In the case of Ac-[Pen][NMeR]SDTL[Pen][1Nal][dH][dK]-NH2 (disulfide 1-7 (inferred); also: homodimer via DIG) [SEQ ID NO: 112], the IC50 is reported as > 50 nM.
With B2 the IC50 was > 1000 nM.
For B3, the IC50 was > 1000 nM.
B4 was tested, and the IC50 was > 1000 nM.
Ac-[Pen][NMeR]SDTL[Pen][2Nal][dH][dK]-NH2 (disulfide 1-7 (inferred); also: homodimer via DIG) [SEQ ID NO: 118] was tested, and the IC50 was > 25 nM.
In the case of B5, the IC50 is reported as > 1000 nM.
Ac-[Pen][NMeR]SDTL[Pen][1Nal][Tic][dK]-NH2 (disulfide 1-7 (inferred); also: homodimer via DIG) [SEQ ID NO: 115] was tested, and the IC50 was > 100 nM.
With Ac-[Pen][NMeR]SDTL[Pen][d1Nal]E[dK]-NH2 (disulfide 1-7; also: dimer via DIG) [SEQ ID NO: 34] the IC50 was > 25 nM.
In the case of Ac-[Pen][NMeR]SDTL[Pen][Bip][dE][dK]-NH2 (disulfide 1-7; also: dimer via DIG, attachment site not given here) [SEQ ID NO: 108], the IC50 is reported as > 10 nM.
In the case of B6, the IC50 is reported as > 1000 nM.
With Ac-[Pen][NMeR]SDTL[Pen]W[Tic][dK]-NH2 (disulfide 1-7; also: dimer via DIG, attachment site not given here) [SEQ ID NO: 109] the IC50 was > 100 nM.
Ac-[Pen][NMeR]SDTL[Pen][Bip]E[NMeK]-NH2 (disulfide 1-7 (inferred); also: homodimer via DIG) [SEQ ID NO: 136] was tested, and the IC50 was < 10 nM.
For B7, the IC50 was > 1000 nM.
With Ac-[Pen][NMeR]SDTL[Pen][Tic][dE][dK]-NH2 (disulfide 1-7; also: dimer (monomer)2-DIG, DIG attachment place not given here) [SEQ ID NO: 80] the IC50 was > 50 nM.
In the case of B8, the IC50 is reported as > 50 nM.
With Ac-[Pen][NMeR]SDTL[Pen][1Nal][dT][dK]-NH2 (disulfide 1-7 (inferred); also: homodimer via DIG) [SEQ ID NO: 116] the IC50 was > 50 nM.
With B9 the IC50 was > 1000 nM.
